Experimental data published in patent US20140087995A1 (published 2014).
Numbered stars: 1 amine (or outer) side, 2 acyl side, 3 side chain; on linkers, the order of the positions; unused ones are H or OH. Bridge positions count the residues as written; N and C are the ends. * marks the point of attachment. C20 diacid = O=C(O)CCCCCCCCCCCCCCCCCCC(=O)*; γGlu = O=C(O)[C@H](CCC(=O)[*:2])N[*:1]

T1: human calcitonin receptor (human, UniProt P30988 25-474)
T1 construct: whole, on cells; Used as membranes prepared from the transfected cells (Assay VII); also called hCTR; hCT
T1 sequence (looked up): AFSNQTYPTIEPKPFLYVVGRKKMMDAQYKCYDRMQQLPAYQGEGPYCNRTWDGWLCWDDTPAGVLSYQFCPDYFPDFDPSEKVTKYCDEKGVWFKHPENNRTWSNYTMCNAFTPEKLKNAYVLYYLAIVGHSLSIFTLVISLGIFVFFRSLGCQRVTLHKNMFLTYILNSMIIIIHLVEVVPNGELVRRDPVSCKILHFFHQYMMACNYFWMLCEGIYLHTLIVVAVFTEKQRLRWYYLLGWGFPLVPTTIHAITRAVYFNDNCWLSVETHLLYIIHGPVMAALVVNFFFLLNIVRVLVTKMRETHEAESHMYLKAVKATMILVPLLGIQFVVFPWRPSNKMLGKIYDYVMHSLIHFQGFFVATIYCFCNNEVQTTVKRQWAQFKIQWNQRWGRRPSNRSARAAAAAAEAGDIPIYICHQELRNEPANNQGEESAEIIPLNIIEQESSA

T2: rat calcitonin receptor (rat, UniProt P32214 25-516)
T2 construct: whole, on cells; Used as membranes prepared from the transfected cells; also called rCTR; rat calcitonin (a) receptor
T2 sequence (looked up): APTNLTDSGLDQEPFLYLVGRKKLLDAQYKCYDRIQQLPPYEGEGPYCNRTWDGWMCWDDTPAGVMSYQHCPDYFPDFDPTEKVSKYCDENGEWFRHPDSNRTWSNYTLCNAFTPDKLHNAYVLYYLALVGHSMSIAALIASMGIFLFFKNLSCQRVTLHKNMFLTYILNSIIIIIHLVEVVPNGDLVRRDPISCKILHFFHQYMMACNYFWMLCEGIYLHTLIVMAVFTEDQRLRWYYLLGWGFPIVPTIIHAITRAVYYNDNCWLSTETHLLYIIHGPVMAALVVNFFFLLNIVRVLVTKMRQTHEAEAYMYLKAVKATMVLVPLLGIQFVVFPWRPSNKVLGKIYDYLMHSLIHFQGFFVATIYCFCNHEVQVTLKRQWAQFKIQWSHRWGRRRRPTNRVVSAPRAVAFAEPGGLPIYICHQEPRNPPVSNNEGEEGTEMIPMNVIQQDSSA

T3: rat amylin receptor (rat calcitonin receptor + rat RAMP 3) (rat, UniProt P32214 25-516; Q9JJ73 23-147)
T3 construct: whole, on cells; Used as membranes prepared from the transfected cells; also called rAmylin-R; rat amylin 3(a) receptor
T3 sequence (looked up) 1: T2 sequence (looked up)
T3 sequence (looked up) 2: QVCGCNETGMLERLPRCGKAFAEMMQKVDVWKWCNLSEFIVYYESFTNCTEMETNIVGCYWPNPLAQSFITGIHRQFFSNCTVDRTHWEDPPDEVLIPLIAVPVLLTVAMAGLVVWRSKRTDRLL

B1: N^α1-[(4S)-4-carboxy-4-(19-carboxynonadecanoylamino)butanoyl]-[Arg17,Pro21,Pro27,Pro31,Glu35]-h-amylin (peptide)
peptide: {C20 diacid-γGlu}-KCNTATCATQRLANFLRHSSPNFGAIPSSTPVGSETY-NH2
modifications: disulfide 2-7
SMILES: CC[C@H](C)[C@H](NC(=O)[C@H](C)NC(=O)CNC(=O)[C@H](Cc1ccccc1)NC(=O)[C@H](CC(N)=O)NC(=O)[C@@H]1CCCN1C(=O)[C@H](CO)NC(=O)[C@H](CO)NC(=O)[C@H](Cc1c[nH]cn1)NC(=O)[C@H](CCCNC(=N)N)NC(=O)[C@H](CC(C)C)NC(=O)[C@H](Cc1ccccc1)NC(=O)[C@H](CC(N)=O)NC(=O)[C@H](C)NC(=O)[C@H](CC(C)C)NC(=O)[C@H](CCCNC(=N)N)NC(=O)[C@H](CCC(N)=O)NC(=O)[C@@H](NC(=O)[C@H](C)NC(=O)[C@@H]1CSSC[C@H](NC(=O)[C@H](CCCCN)NC(=O)CC[C@H](NC(=O)CCCCCCCCCCCCCCCCCCC(=O)O)C(=O)O)C(=O)N[C@@H](CC(N)=O)C(=O)N[C@@H]([C@@H](C)O)C(=O)N[C@@H](C)C(=O)N[C@@H]([C@@H](C)O)C(=O)N1)[C@@H](C)O)C(=O)N1CCC[C@H]1C(=O)N[C@@H](CO)C(=O)N[C@@H](CO)C(=O)N[C@H](C(=O)N1CCC[C@H]1C(=O)N[C@H](C(=O)NCC(=O)N[C@@H](CO)C(=O)N[C@@H](CCC(=O)O)C(=O)N[C@H](C(=O)N[C@@H](Cc1ccc(O)cc1)C(N)=O)[C@@H](C)O)C(C)C)[C@@H](C)O
notes: Derivative of human amylin; also called compound 28
B2: N^α1-[(4S)-4-carboxy-4-(19-carboxynonadecanoylamino)butanoyl]-[Arg17,Pro21,Pro27,Pro34,Glu35]-h-amylin (peptide)
peptide: {C20 diacid-γGlu}-KCNTATCATQRLANFLRHSSPNFGAIPSSTNVGPETY-NH2
modifications: disulfide 2-7
SMILES: CC[C@H](C)[C@H](NC(=O)[C@H](C)NC(=O)CNC(=O)[C@H](Cc1ccccc1)NC(=O)[C@H](CC(N)=O)NC(=O)[C@@H]1CCCN1C(=O)[C@H](CO)NC(=O)[C@H](CO)NC(=O)[C@H](Cc1c[nH]cn1)NC(=O)[C@H](CCCNC(=N)N)NC(=O)[C@H](CC(C)C)NC(=O)[C@H](Cc1ccccc1)NC(=O)[C@H](CC(N)=O)NC(=O)[C@H](C)NC(=O)[C@H](CC(C)C)NC(=O)[C@H](CCCNC(=N)N)NC(=O)[C@H](CCC(N)=O)NC(=O)[C@@H](NC(=O)[C@H](C)NC(=O)[C@@H]1CSSC[C@H](NC(=O)[C@H](CCCCN)NC(=O)CC[C@H](NC(=O)CCCCCCCCCCCCCCCCCCC(=O)O)C(=O)O)C(=O)N[C@@H](CC(N)=O)C(=O)N[C@@H]([C@@H](C)O)C(=O)N[C@@H](C)C(=O)N[C@@H]([C@@H](C)O)C(=O)N1)[C@@H](C)O)C(=O)N1CCC[C@H]1C(=O)N[C@@H](CO)C(=O)N[C@@H](CO)C(=O)N[C@H](C(=O)N[C@@H](CC(N)=O)C(=O)N[C@H](C(=O)NCC(=O)N1CCC[C@H]1C(=O)N[C@@H](CCC(=O)O)C(=O)N[C@H](C(=O)N[C@@H](Cc1ccc(O)cc1)C(N)=O)[C@@H](C)O)C(C)C)[C@@H](C)O
notes: Derivative of human amylin; also called compound 29
B3: N^α1-[(4S)-4-carboxy-4-(19-carboxynonadecanoylamino)butanoyl]-[Glu14,Arg17,Pro21,Pro26,Pro37]-h-amylin (peptide)
peptide: {C20 diacid-γGlu}-KCNTATCATQRLAEFLRHSSPNFGAPLSSTNVGSNTP-NH2
modifications: disulfide 2-7
SMILES: CC(C)C[C@H](NC(=O)[C@H](CCCNC(=N)N)NC(=O)[C@H](CCC(N)=O)NC(=O)[C@@H](NC(=O)[C@H](C)NC(=O)[C@@H]1CSSC[C@H](NC(=O)[C@H](CCCCN)NC(=O)CC[C@H](NC(=O)CCCCCCCCCCCCCCCCCCC(=O)O)C(=O)O)C(=O)N[C@@H](CC(N)=O)C(=O)N[C@@H]([C@@H](C)O)C(=O)N[C@@H](C)C(=O)N[C@@H]([C@@H](C)O)C(=O)N1)[C@@H](C)O)C(=O)N[C@@H](C)C(=O)N[C@@H](CCC(=O)O)C(=O)N[C@@H](Cc1ccccc1)C(=O)N[C@@H](CC(C)C)C(=O)N[C@@H](CCCNC(=N)N)C(=O)N[C@@H](Cc1c[nH]cn1)C(=O)N[C@@H](CO)C(=O)N[C@@H](CO)C(=O)N1CCC[C@H]1C(=O)N[C@@H](CC(N)=O)C(=O)N[C@@H](Cc1ccccc1)C(=O)NCC(=O)N[C@@H](C)C(=O)N1CCC[C@H]1C(=O)N[C@@H](CC(C)C)C(=O)N[C@@H](CO)C(=O)N[C@@H](CO)C(=O)N[C@H](C(=O)N[C@@H](CC(N)=O)C(=O)N[C@H](C(=O)NCC(=O)N[C@@H](CO)C(=O)N[C@@H](CC(N)=O)C(=O)N[C@H](C(=O)N1CCC[C@H]1C(N)=O)[C@@H](C)O)C(C)C)[C@@H](C)O
notes: Derivative of human amylin; also called compound 5
B4: N^α1-[(4S)-4-carboxy-4-(19-carboxynonadecanoylamino)butanoyl]-[Glu14,Arg17,Pro21,Pro25,Pro28,Pro29]-h-amylin (peptide)
peptide: {C20 diacid-γGlu}-KCNTATCATQRLAEFLRHSSPNFGPILPPTNVGSNTY-NH2
modifications: disulfide 2-7
SMILES: CC[C@H](C)[C@H](NC(=O)[C@@H]1CCCN1C(=O)CNC(=O)[C@H](Cc1ccccc1)NC(=O)[C@H](CC(N)=O)NC(=O)[C@@H]1CCCN1C(=O)[C@H](CO)NC(=O)[C@H](CO)NC(=O)[C@H](Cc1c[nH]cn1)NC(=O)[C@H](CCCNC(=N)N)NC(=O)[C@H](CC(C)C)NC(=O)[C@H](Cc1ccccc1)NC(=O)[C@H](CCC(=O)O)NC(=O)[C@H](C)NC(=O)[C@H](CC(C)C)NC(=O)[C@H](CCCNC(=N)N)NC(=O)[C@H](CCC(N)=O)NC(=O)[C@@H](NC(=O)[C@H](C)NC(=O)[C@@H]1CSSC[C@H](NC(=O)[C@H](CCCCN)NC(=O)CC[C@H](NC(=O)CCCCCCCCCCCCCCCCCCC(=O)O)C(=O)O)C(=O)N[C@@H](CC(N)=O)C(=O)N[C@@H]([C@@H](C)O)C(=O)N[C@@H](C)C(=O)N[C@@H]([C@@H](C)O)C(=O)N1)[C@@H](C)O)C(=O)N[C@@H](CC(C)C)C(=O)N1CCC[C@H]1C(=O)N1CCC[C@H]1C(=O)N[C@H](C(=O)N[C@@H](CC(N)=O)C(=O)N[C@H](C(=O)NCC(=O)N[C@@H](CO)C(=O)N[C@@H](CC(N)=O)C(=O)N[C@H](C(=O)N[C@@H](Cc1ccc(O)cc1)C(N)=O)[C@@H](C)O)C(C)C)[C@@H](C)O
notes: Derivative of human amylin; also called compound 6
B5: N^α1-[(4S)-4-carboxy-4-(19-carboxynonadecanoylamino)butanoyl]-[Glu14,Arg17,Pro21,Pro25,Pro28,Pro29,Pro37]-h-amylin (peptide)
peptide: {C20 diacid-γGlu}-KCNTATCATQRLAEFLRHSSPNFGPILPPTNVGSNTP-NH2
modifications: disulfide 2-7
SMILES: CC[C@H](C)[C@H](NC(=O)[C@@H]1CCCN1C(=O)CNC(=O)[C@H](Cc1ccccc1)NC(=O)[C@H](CC(N)=O)NC(=O)[C@@H]1CCCN1C(=O)[C@H](CO)NC(=O)[C@H](CO)NC(=O)[C@H](Cc1c[nH]cn1)NC(=O)[C@H](CCCNC(=N)N)NC(=O)[C@H](CC(C)C)NC(=O)[C@H](Cc1ccccc1)NC(=O)[C@H](CCC(=O)O)NC(=O)[C@H](C)NC(=O)[C@H](CC(C)C)NC(=O)[C@H](CCCNC(=N)N)NC(=O)[C@H](CCC(N)=O)NC(=O)[C@@H](NC(=O)[C@H](C)NC(=O)[C@@H]1CSSC[C@H](NC(=O)[C@H](CCCCN)NC(=O)CC[C@H](NC(=O)CCCCCCCCCCCCCCCCCCC(=O)O)C(=O)O)C(=O)N[C@@H](CC(N)=O)C(=O)N[C@@H]([C@@H](C)O)C(=O)N[C@@H](C)C(=O)N[C@@H]([C@@H](C)O)C(=O)N1)[C@@H](C)O)C(=O)N[C@@H](CC(C)C)C(=O)N1CCC[C@H]1C(=O)N1CCC[C@H]1C(=O)N[C@H](C(=O)N[C@@H](CC(N)=O)C(=O)N[C@H](C(=O)NCC(=O)N[C@@H](CO)C(=O)N[C@@H](CC(N)=O)C(=O)N[C@H](C(=O)N1CCC[C@H]1C(N)=O)[C@@H](C)O)C(C)C)[C@@H](C)O
notes: Derivative of human amylin; also called compound 4

Molecular target: T1, human calcitonin receptor
Assay: ratio IC50 human calcitonin receptor / IC50 human amylin receptor (Assays VII and V)
Method in brief: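 Membranes (35 ng/μL final) + SPA beads, 50 mM Hepes pH 7.4 buffer with 1 mM CaCl2, 5 mM MgCl₂, 0.1% OA, 0.02% Tween20; 120 min, 25° C, shaking; centrifuged, counted; IC₅₀ by one-site binding competition.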

| Ratio hCT/hAmylin binding | Binder |
| --- | --- |
| 20.5 | B1 |
| 13.9 | B2 |
| 1.4 | B3 |
| 20 | B4 |
| 2.1 | B5 |

Molecular target: T2, rat calcitonin receptor
Assay: SPA competition with 125I-calcitonin, membranes of BHK cells with rat calcitonin receptor (Assay VIII)

| IC50 [nM] | Binder |
| --- | --- |
| 54.9 | B1 |
| 21.6 | B2 |
| 4.65 | B3 |
| 51.5 | B4 |
| 4.05 | B5 |

Molecular target: T2, rat calcitonin receptor
Assay: ratio IC50 rat calcitonin receptor / IC50 rat amylin receptor (Assays VIII and VI)

| Ratio rCT/rAmylin binding | Binder |
| --- | --- |
| 44.9 | B1 |
| 67 | B2 |
| 3.6 | B3 |
| 21.7 | B4 |
| 3.1 | B5 |

Molecular target: T3, rat amylin receptor (rat calcitonin …)
Assay: SPA competition with 125I-rat amylin, membranes of BHK cells with rat calcitonin receptor + rat RAMP3 (Assay VI)

| IC50 [nM] | Binder |
| --- | --- |
| 1.22 | B1 |
| 0.322 | B2 |
| 1.3 | B3 |
| 2.37 | B4 |
| 1.3 | B5 |
